Assay results reported in IntAct's records for PubMed 23746845.

B1: Telomere length regulator protein RIF1 (Saccharomyces cerevisiae), P29539 (parent)
chain: MSKDFSDKKKHTIDRIDQHILRRSQHDNYSNGSSPWMKTNLPPPSPQAHMHIQSDLSPTPKRRKLASSSDCENKQFDLSAINKNLYPEDTGSRLMQSLPELSASNSDNVSPVTKSVAFSDRIESSPIYRIPGSSPKPSPSSKPGKSILRNRLPSVRTVSDLSYNKLQYTQHKLHNGNIFTSPYKETRVNPRALEYWVSGEIHGLVDNESVSEFKEIIEGGLGILRQESEDYVARRFEVYATFNNIIPILTTKNVNEVDQKFNILIVNIESIIEICIPHLQIAQDTLLSSSEKKNPFVIRLYVQIVRFFSAIMSNFKIVKWLTKRPDLVNKLKVIYRWTTGALRNENSNKIIITAQVSFLRDEKFGTFFLSNEEIKPIISTFTEIMEINSHNLIYEKLLLIRGFLSKYPKLMIETVTSWLPGEVLPRIIIGDEIYSMKILITSIVVLLELLKKCLDFVDEHERIYQCIMLSPVCETIPEKFLSKLPLNSYDSANLDKVTIGHLLTQQIKNYIVVKNDNKIAMDLWLSMTGLLYDSGKRVYDLTSESNKVWFDLNNLCFINNHPKTRLMSIKVWRIITYCICTKISQKNQEGNKSLLSLLRTPFQMTLPYVNDPSAREGIIYHLLGVVYTAFTSNKNLSTDMFELFWDHLITPIYEDYVFKYDSIHLQNVLFTVLHLLIGGKNADVALERKYKKHIHPMSVIASEGVKLKDISSLPPQIIKREYDKIMKVVFQAVEVAISNVNLAHDLILTSLKHLPEDRKDQTHLESFSSLILKVTQNNKDTPIFRDFFGAVTSSFVYTFLDLFLRKNDSSLVNFNIQISKVGISQGNMTLDLLKDVIRKARNETSEFLIIEKFLELDDKKTEVYAQNWVGSTLLPPNISFREFQSLANIVNKVPNENSIENFLDLCLKLSFPVNLFTLLHVSMWSNNNFIYFIQSYVSKNENKLNVDLITLLKTSLPGNPELFSGLLPFLRRNKFMDILEYCIHSNPNLLNSIPDLNSDLLLKLLPRSRASYFAANIKLFKCSEQLTLVRWLLKGQQLEQLNQNFSEIENVLQNASDSELEKSEIIRELLHLAMANPIEPLFSGLLNFCIKNNMADHLDEFCGNMTSEVLFKISPELLLKLLTYKEKPNGKLLAAVIEKIENGDDDYILELLEKIIIQKEIQILEKLKEPLLVFFLNPVSSNMQKHKKSTNMLRELVLLYLTKPLSRSAAKKFFSMLISILPPNPNYQTIDMVNLLIDLIKSHNRKFKDKRTYNATLKTIGKWIQESGVVHQGDSSKEIEAIPDTKSMYIPCEGSENKLSNLQRKVDSQDIQVPATQGMKEPPSSIQISSQISAKDSDSISLKNTAIMNSSQQESHANRSRSIDDETLEEVDNESIREIDQQMKSTQLDKNVANHSNICSTKSDEVDVTELHESIDTQSSEVNAYQPIEVLTSELKAVTNRSIKTNPDHNVVNSDNPLKRPSKETPTSENKRSKGHETMVDVLVSEEQAVSPSSDVICTNIKSIANEESSLALRNSIKVETNCNENSLNVTLDLDQQTITKEDGKGQVEHVQRQENQESMNKINSKSFTQDNIAQYKSVKKARPNNEGENNDYACNVEQASPVRNEVPGDGIQIPSGTILLNSSKQTEKSKVDDLRSDEDEHGTVAQEKHQVGAINSRNKNNDRMDSTPIQGTEEESREVVMTEEGINVRLEDSGTCELNKNLKGPLKGDKDANINDDFVPVEENVRDEGFLKSMEHAVSKETGLEEQPEVADISVLPEIRIPIFNSLKMQGSKSQIKEKLKKRLQRNELMPPDSPPRMTENTNINAQNGLDTVPKTIGGKEKHHEIQLGQAHTEADGEPLLGGDGNEDATSREATPSLKVHFFSKKSRRLVARLRGFTPGDLNGISVEERRNLRIELLDFMMRLEYYSNRDNDMN
partner: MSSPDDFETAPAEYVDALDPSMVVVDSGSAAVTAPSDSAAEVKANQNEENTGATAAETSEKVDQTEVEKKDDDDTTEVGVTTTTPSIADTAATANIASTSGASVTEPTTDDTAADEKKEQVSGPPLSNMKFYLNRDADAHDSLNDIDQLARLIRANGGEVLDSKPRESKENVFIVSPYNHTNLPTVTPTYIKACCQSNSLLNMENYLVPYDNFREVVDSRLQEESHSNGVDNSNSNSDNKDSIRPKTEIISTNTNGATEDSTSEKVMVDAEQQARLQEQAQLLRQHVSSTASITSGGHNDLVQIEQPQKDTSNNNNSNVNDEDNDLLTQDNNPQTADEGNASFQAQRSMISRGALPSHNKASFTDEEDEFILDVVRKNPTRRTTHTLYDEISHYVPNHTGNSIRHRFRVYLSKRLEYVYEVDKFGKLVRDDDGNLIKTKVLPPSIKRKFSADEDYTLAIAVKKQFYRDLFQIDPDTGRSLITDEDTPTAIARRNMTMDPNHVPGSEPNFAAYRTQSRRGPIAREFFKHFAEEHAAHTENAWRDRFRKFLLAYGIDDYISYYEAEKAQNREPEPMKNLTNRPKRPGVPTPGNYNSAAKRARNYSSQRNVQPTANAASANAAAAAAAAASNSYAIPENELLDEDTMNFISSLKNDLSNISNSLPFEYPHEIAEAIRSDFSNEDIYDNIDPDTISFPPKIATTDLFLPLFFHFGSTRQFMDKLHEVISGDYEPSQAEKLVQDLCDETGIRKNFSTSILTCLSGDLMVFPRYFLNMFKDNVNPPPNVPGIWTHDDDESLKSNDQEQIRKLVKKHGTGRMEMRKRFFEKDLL
B2: DNA-binding protein RAP1 (Saccharomyces cerevisiae), P11938 (parent)
chain: B1 partner

Variants of: B1
Conditions: with rap1_yeast RAP1, P11938

effect of a mutation on the interaction	Variant
disrupting interaction strength	I1760R
disrupting interaction strength	I1762R
disrupting interaction strength	L1905R
decreasing interaction strength	R1895E
disrupting interaction strength	I1764R

Variants of: B1
Conditions: with rap1_yeast RAP1, P11938
Remark: another data set of the same source

effect of a mutation on the interaction	Variant
decreasing interaction strength	L1905R

Variants of: B2
Conditions: with rif1_yeast RIF1, P29539

effect of a mutation on the interaction	Variant
disrupting interaction strength	A733R
disrupting interaction strength	G760R
